Here are results for one molecule from article PMC3342439 (Journal of the American Chemical Society, 2012).

Test in all cases: BLI
The target of assay [1] is T1, Germicidin synthase (Gcs) R276A (Streptomyces coelicolor, UniProt Q9K464 1-389, R276A).
T1 sequence (looked up): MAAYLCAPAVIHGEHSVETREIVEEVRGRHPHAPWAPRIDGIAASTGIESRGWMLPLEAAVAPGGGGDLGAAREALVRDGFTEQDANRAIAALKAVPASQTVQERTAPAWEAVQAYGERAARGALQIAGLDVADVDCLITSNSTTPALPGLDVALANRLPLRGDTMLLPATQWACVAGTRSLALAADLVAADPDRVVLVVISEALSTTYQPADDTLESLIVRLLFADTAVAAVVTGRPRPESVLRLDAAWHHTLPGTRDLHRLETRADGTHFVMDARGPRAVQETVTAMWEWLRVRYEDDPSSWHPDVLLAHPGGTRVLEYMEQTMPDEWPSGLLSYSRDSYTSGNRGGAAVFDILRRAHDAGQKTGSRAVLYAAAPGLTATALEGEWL

Assay [2] deals with T2, Germicidin synthase (Gcs) R277A (Streptomyces coelicolor, UniProt Q9K464 1-389, R277A).
T2 sequence (looked up): T1 sequence (looked up) with A276R, R277A

Assay [3] concerns the target T3, Germicidin synthase (Gcs), wild type (Streptomyces coelicolor, UniProt Q9K464 1-389).
T3 sequence (looked up): T1 sequence (looked up) with A276R

In assay [4] the target is T4, Germicidin synthase (Gcs) R276/317A double mutant (Streptomyces coelicolor, UniProt Q9K464 1-389, R276/317A | R276/317A).
T4 sequence (looked up): T1 sequence (looked up) with R317A

Assay [5] deals with T5, Germicidin synthase (Gcs) R280A (Streptomyces coelicolor, UniProt Q9K464 1-389, R280A).
T5 sequence (looked up): T1 sequence (looked up) with A276R, R280A

The target of assay [6] is T6, Germicidin synthase (Gcs) R317A (Streptomyces coelicolor, UniProt Q9K464 1-389, R317A).
T6 sequence (looked up): T1 sequence (looked up) with A276R, R317A

Residue numbers refer to the chain shown, from its start.

B1: Acyl carrier protein AcpP (Sco2389), biotinylated (natural protein, Streptomyces coelicolor, UniProt P72393 1-82, looked up)
chain: MAATQEEIVAGLAEIVNEIAGIPVEDVKLDKSFTDDLDVDSLSMVEVVVAAEERFDVKIPDDDVKNLKTVGDATKYILDHQA
modifications: biotin (EZ-Link NHS-LC-LC-biotin, 5:1 molar ratio of biotin to protein)
Take B1: the Kd was 185 nM in assay [1]; 403 nM in assay [2]; 225 nM in assay [3]; 192 nM in assay [4]; 184 nM in assay [5]; 161 nM in assay [6]. The koff worked out at 0.000253 s⁻¹ in assay [1]; 0.000128 s⁻¹ in assay [2]; 0.00022 s⁻¹ in assay [3]; 0.00017 s⁻¹ in assay [4]; 0.000122 s⁻¹ in assay [5]; 0.000407 s⁻¹ in assay [6]. Besides, the on-rate (kon) in assay [1] was 628 M⁻¹ s⁻¹; in assay [2], 695 M⁻¹ s⁻¹; in assay [3], 1190 M⁻¹ s⁻¹; in assay [4], 892 M⁻¹ s⁻¹; in assay [5] it was 769 M⁻¹ s⁻¹; in assay [6] it was 1810 M⁻¹ s⁻¹.

The term Kd denotes the free concentration of one partner at which half of the binding sites on the other are occupied at equilibrium, for simple one-to-one binding. Lower therefore signals a tighter complex. What is called koff is the rate constant with which the complex falls apart. The term kon denotes a measure of how fast the partners come together. Higher therefore signals faster complex formation.
